Results on 1 molecule are retold here after paper doi:10.1101/2023.10.29.564595, “The N-terminal region of DNMT3A combines multiple chromatin reading motifs to guide recruitment”.

The series addresses DNMT3A1 1-427 R181A/R183A (human, UniProt Q9Y6K1 1-427, R181A;R183A). The experiment in a line: EMSA; only marginally affected; EMSA: 15 mM HEPES pH 7.5, 75 mM NaCl, 0.05% Triton X-100, 0.05 mg/mL BSA, 10% glycerol, 1 mM DTT, 0.5 mg/mL salmon sperm DNA (nucleosomes), 2.4 nM tracer, 1 h on ice; full-length complex: 17.5 mM HEPES pH 8, 150 mM NaCl, 1.5 mM MgCl2, 2.5% glycerol, 1 mM DTT, 0.1 mg/mL BSA, on ice. As to conditions: protein: recombinant; tags: His-MBP; label: 5' 6-FAM; blunt. On the technique in general: In EMSA bound probe runs differently from free probe, usually more slowly.

DNMT3A1 1-427 R181A/R183A, sequence (Q9Y6K1 1-427 R181A/R183A): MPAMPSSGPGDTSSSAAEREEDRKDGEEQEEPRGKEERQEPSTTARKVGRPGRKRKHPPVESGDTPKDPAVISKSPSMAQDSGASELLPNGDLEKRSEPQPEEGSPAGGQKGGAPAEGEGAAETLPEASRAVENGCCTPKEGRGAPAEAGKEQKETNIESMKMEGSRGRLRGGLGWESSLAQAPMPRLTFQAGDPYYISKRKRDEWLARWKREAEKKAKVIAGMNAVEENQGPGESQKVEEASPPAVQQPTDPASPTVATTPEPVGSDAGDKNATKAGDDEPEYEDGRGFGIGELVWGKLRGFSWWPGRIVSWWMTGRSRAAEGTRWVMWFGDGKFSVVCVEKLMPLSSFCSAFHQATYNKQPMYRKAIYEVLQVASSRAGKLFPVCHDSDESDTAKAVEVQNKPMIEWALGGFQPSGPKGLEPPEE

B1: free 175 bp Widom601 DNA (dsDNA)
DNA 1: TATACGCGGCCGCCCTGGAGAATCCCGGTGCCGAGGCCGCTCAATTGGTCGTAGACAGCTCTAGCACCGCTTAAACGCACGTACGCGCTGTCCCCCGCGTTTTAACCGCCAAGGGGATTACTCCCTAGTCTCCAGGCACGTGTCAGATATATACATCCTGTGCAATGTGTTCCAT
DNA 2: ATGGAACACATTGCACAGGATGTATATATCTGACACGTGCCTGGAGACTAGGGAGTAATCCCCTTGGCGGTTAAAACGCGGGGGACAGCGCGTACGTGCGTTTAAGCGGTGCTAGAGCTGTCTACGACCAATTGAGCGGCCTCGGCACCGGGATTCTCCAGGGCGGCCGCGTATA
Turning to B1, the binding result is recorded as “binds”.
